From US12059458B2, “Peptides and combination of peptides and scaffolds for use in immunotherapy against renal cell carcinoma (RCC) and other cancers” (Immatics Biotechnologies GmbH, priority 2015, dated 2024) come the findings set out here.

The target in the test is HLA-A*02:01 (Homo sapiens, UniProt P04439, D140Y/D185E/D98H/E176V/E277Q/G131W/G231S/I119V/I121R/I166T/I218V/L300P/L318F/N151K/N90K/P208A/P217A/Q86G/Q94H/R138H/R169H/T345S). Kind of test: MHC binding assay (UV-ligand exchange, beta2m ELISA, peptide exchange yield). The settings on record: binding to HLA-A*02:01 ranged by peptide exchange yield, β2m ELISA. An excerpt:
Candidate peptides for T cell based therapies according to the present invention were further tested for their MHC binding capacity (affinity). The individual peptide-MHC complexes were produced by UV-ligand exchange, where a UV-sensitive peptide is cleaved upon UV-irradiation, and exchanged with the peptide of interest as analyzed. Only peptide candidates that can effectively bind and stabilize the peptide-receptive MHC molecules prevent dissociation of the MHC complexes. To determine the yield of the exchange reaction, an ELISA was performed based on the detection of the light chain (β2m) of stabilized MHC complexes. The assay was performed as generally described in Rodenko et al. (Rodenko et al., 2006).
96 well MAXISorp plates (NUNC) were coated over night with 2 ug/ml streptavidin in PBS at room temperature, washed 4× and blocked for 1 h at 37° C. in 2% BSA containing blocking buffer. Refolded HLA-A*02:01/MLA-001 monomers served as standards, covering the range of 15-500 ng/ml. Peptide-MHC monomers of the UV-exchange reaction were diluted 100 fold in blocking buffer. Samples were incubated for 1 h at 37° C., washed four times, incubated with 2 ug/ml HRP conjugated anti-β2m for 1h at 37° C., washed again and detected with TMB solution that is stopped with […]. Absorption was measured at 450 nm. Candidate peptides that show a high exchange yield (preferably higher than 50%, most preferred higher than 75%) are generally preferred for a generation and production of antibodies or fragments thereof, and/or T cell receptors or fragments thereof, as they show sufficient avidity to the MHC molecules and prevent dissociation of the MHC complexes.

“73 (GLDGIPFTV; listed as Homo sapiens) [compound 73]”: the “Peptide exchange (MHC class I binding score)” value (“Peptide exchange” below) is recorded as “+++ (≥50 = +++)”.
Regarding “90 (FTLEKNFVI; listed as Homo sapiens) [compound 90]”, the “Peptide exchange” value is recorded as “++ (≥20% = ++)”.
The result for “50 (SLSDHIVLL; listed as Homo sapiens) [compound 50]” reads “++ (≥20% = ++)”; that for “40 (YIQEHLLQI; listed as Homo sapiens) [compound 40]”, “+++ (≥50 = +++)”.
The same measure for “21 (RLIQGDQILSV; listed as Homo sapiens) [compound 21]”: “++ (≥20% = ++)”.
As for “51 (NLWPMILTL; listed as Homo sapiens) [compound 51]”, the “Peptide exchange” value is on record as “+++ (≥50 = +++)”.
“84 (YLMDEGAHL; listed as Homo sapiens) [compound 84]”: the “Peptide exchange” value is “++ (≥20% = ++)”.
As for “79 (ALADIVWRA; listed as Homo sapiens) [compound 79]”, the “Peptide exchange” value is given as “+++ (≥50 = +++)”.
The result for “71 (ALDGHLYAV; listed as Homo sapiens) [compound 71]” reads “+++ (≥50 = +++)”; that for “100 (KLNVAPLAV; listed as Homo sapiens) [compound 100]”, “++ (≥20% = ++)”.
As for “30 (QLFYTKIFL; listed as Homo sapiens) [compound 30]”, the “Peptide exchange” value is on record as “++ (≥20% = ++)”.
Consider “57 (SLQKEILYL; listed as Homo sapiens) [compound 57]”, for which the “Peptide exchange” value is on record as “++ (≥20% = ++)”.
On to “108 (VLISVLQAI; listed as Homo sapiens) [compound 108]”, for which the “Peptide exchange” value is listed as “++ (≥20% = ++)”.
The result for “74 (GLFHKQVTV; listed as Homo sapiens) [compound 74]” reads “+++ (≥50 = +++)”; that for “24 (FTLGTTVFL; listed as Homo sapiens) [compound 24]”, “+++ (≥50 = +++)”; that for “77 (SLIKHKIML; listed as Homo sapiens) [compound 77]”, “++ (≥20% = ++)”.
On to “69 (ILADLLPSL; listed as Homo sapiens) [compound 69]”, for which the “Peptide exchange” value is on record as “++ (≥20% = ++)”.
The same measure for “75 (FLIKSINLV; listed as Homo sapiens) [compound 75]”: “+++ (≥50 = +++)”; for “17 (ILAQQVHAL; listed as Homo sapiens) [compound 17]”: “+++ (≥50 = +++)”; for “54 (ALVAKGLVQA; listed as Homo sapiens) [compound 54]”: “++ (≥20% = ++)”.
The result for “67 (LLDVLAPLV; listed as Homo sapiens) [compound 67]” reads “++ (≥20% = ++)”.
Consider “14 (ALLTETIFL; listed as Homo sapiens) [compound 14]”, for which the “Peptide exchange” value was “++ (≥20% = ++)”.
The result for “62 (VLAGPAFLVQL; listed as Homo sapiens) [compound 62]” reads “+++ (≥50 = +++)”.
The result for “39 (YLLNLNHLGL; listed as Homo sapiens) [compound 39]” reads “+++ (≥50 = +++)”.
The same measure for “58 (FLVDFEQSHL; listed as Homo sapiens) [compound 58]”: “++++ (≥75% = ++++)”; for “44 (ALFSFVTAL; listed as Homo sapiens) [compound 44]”: “+++ (≥50 = +++)”.
For the substance “102 (LLFDVHTTL; listed as Homo sapiens) [compound 102]”, the “Peptide exchange” value was “+++ (≥50 = +++)”.
For “76 (VLADDHLIEV; listed as Homo sapiens) [compound 76]”, the “Peptide exchange” value is recorded as “++ (≥20% = ++)”.
The result for “42 (VILDTGTIQL; listed as Homo sapiens) [compound 42]” reads “++ (≥20% = ++)”.
The result for “53 (FLLEIRQTL; listed as Homo sapiens) [compound 53]” reads “++ (≥20% = ++)”.
As to “8 (GLASFKSFL; listed as Homo sapiens) [compound 8]”, the “Peptide exchange” value is listed as “++ (≥20% = ++)”.
As for “85 (FVMSEIRTV; listed as Homo sapiens) [compound 85]”, the “Peptide exchange” value is reported as “+++ (≥50 = +++)”.
On to “59 (SLKNNVVSV; listed as Homo sapiens) [compound 59]”, for which the “Peptide exchange” value is listed as “+++ (≥50 = +++)”.
The same measure for “13 (KIMAQILTV; listed as Homo sapiens) [compound 13]”: “+++ (≥50 = +++)”; for “111 (TLLETEMLL; listed as Homo sapiens) [compound 111]”: “++ (≥20% = ++)”; for “11 (FIQTEAPKEV; listed as Homo sapiens) [compound 11]”: “++ (≥20% = ++)”.
The result for “48 (VVASNIMEV; listed as Homo sapiens) [compound 48]” reads “++ (≥20% = ++)”; that for “96 (TLAETLVNL; listed as Homo sapiens) [compound 96]”, “+++ (≥50 = +++)”; that for “114 (ALAVNISAA; listed as Homo sapiens) [compound 114]”, “+++ (≥50 = +++)”.
The result for “109 (YLWSRVEKL; listed as Homo sapiens) [compound 109]” reads “++++ (≥75% = ++++)”; that for “4 (FLSQDIITV; listed as Homo sapiens) [compound 4]”, “+++ (≥50 = +++)”; that for “88 (TLAELHISL; listed as Homo sapiens) [compound 88]”, “++ (≥20% = ++)”.
Turning to “19 (LLDPGSLQL; listed as Homo sapiens) [compound 19]”, the “Peptide exchange” value was “++ (≥20% = ++)”.
In the case of “64 (LLAASVALA; listed as Homo sapiens) [compound 64]”, the “Peptide exchange” value was “++ (≥20% = ++)”.
The result for “43 (YLKDELDEL; listed as Homo sapiens) [compound 43]” reads “+++ (≥50 = +++)”; that for “23 (YIQEVVQYI; listed as Homo sapiens) [compound 23]”, “+++ (≥50 = +++)”.
Turning to “80 (KLASMLETL; listed as Homo sapiens) [compound 80]”, the “Peptide exchange” value was “+++ (≥50 = +++)”.
The same measure for “101 (HIYDKAFITV; listed as Homo sapiens) [compound 101]”: “++ (≥20% = ++)”; for “68 (YVLTQPPSV; listed as Homo sapiens) [compound 68]”: “++ (≥20% = ++)”.
“49 (VLIVEVPGV; listed as Homo sapiens) [compound 49]”: the “Peptide exchange” value is “+++ (≥50 = +++)”.
The result for “89 (SLLLAVTEV; listed as Homo sapiens) [compound 89]” reads “++ (≥20% = ++)”.
As to “105 (ALADLDELLIRA; listed as Homo sapiens) [compound 105]”, the “Peptide exchange” value is listed as “+++ (≥50 = +++)”.
On to “61 (SLMGILLRI; listed as Homo sapiens) [compound 61]”, for which the “Peptide exchange” value is reported as “++ (≥20% = ++)”.
For “33 (FIADVVEKI; listed as Homo sapiens) [compound 33]”, the “Peptide exchange” value is listed as “++ (≥20% = ++)”.
The result for “93 (GVMAGDIYSV; listed as Homo sapiens) [compound 93]” reads “++++ (≥75% = ++++)”.
The result for “35 (VLHSLQTQL; listed as Homo sapiens) [compound 35]” reads “++ (≥20% = ++)”.
The result for “31 (VLFGLDPAVIKV; listed as Homo sapiens) [compound 31]” reads “+++ (≥50 = +++)”; that for “106 (VLMDLKALL; listed as Homo sapiens) [compound 106]”, “+++ (≥50 = +++)”.
On to “103 (KLQDGLLHI; listed as Homo sapiens) [compound 103]”, for which the “Peptide exchange” value is “++ (≥20% = ++)”.
In the case of “56 (ILMDFSNSM; listed as Homo sapiens) [compound 56]”, the “Peptide exchange” value is given as “+++ (≥50 = +++)”.
As to “63 (GLIEDHFDVTV; listed as Homo sapiens) [compound 63]”, the “Peptide exchange” value is “++ (≥20% = ++)”.
